# Measured values from US20120009171A1 (SHIRE HUMAN GENETIC THERAPIES, published 2012).
# B1: recombinant human arylsulfatase A (rhASA) (enzyme)
# chain: RPPNIVLIFADDLGYGDLGCYGHPSSTTPNLDQLAAGGLRFTDFYVPVSLCTPSRAALLTGRLPVRMGMYPGVLVPSSRGGLPLEEVTVAEVLAARGYLTGMAGKWHLGVGPEGAFLPPHQGFHRFLGIPYSHDQGPCQNLTCFPPATPCDGGCDQGLVPIPLLANLSVEAQPPWLPGLEARYMAFAHDLMADAQRQDRPFFLYYASHHTHYPQFSGQSFAERSGRGPFGDSLMELDAAVGTLMTAIGDLGLLEETLVIFTADNGPETMRMSRGGCSGLLRCGKGTTYEGGVREPALAFWPGHIAPGVTHELASSLDLLPTLAALAGAPLPNVTLDGFDLSPLLLGTGKSPRQSLFFYPSYPDEVRGVFAVRTGKYKAHFFTQGSAHSDTTADPACHASSSLTAHEPPLLYDLSKDPGENYNLLGGVAGATPEVLQALKQLQLLKAQLDAAVTFGPSQVARGEDPALQICCHPGCTPRPACCHCPDPHA
# notes: By SEC-HPLC it associates to an octamer at pH 5.5 and is seen as a dimer at pH 7.0; also called recombinantly-prepared human arylsulfatase A; human ASA
# Target: the molecule itself
# Assay: SEC-HPLC, mobile phase 100 mM sodium citrate pH 5.5 (self-association)
# Protocol: Waters HPLC systems were used for size exclusion and reversed phase HPLC analyses. For initial SEC-HPLC analysis, 50 μg of rhASA was injected on to an Agilent Zorbax GF-250 column (4.6 mm×250 mm) and run isocratically at 0.24 mL/min using a mobile phase of 100 mM sodium citrate pH 5.5 (octomer detection) with a detection wavelength of 280 nm. The analyses were repeated using mobile phase conditions of 100 mM sodium citrate, pH 7.0 (dimer detection).
# Analysis by size exclusion HPLC detected some degradation for the 2 week thermal stressed sample formulated in 5 mM sodium phosphate with 154 mM NaCl at pH 7.0. The degradation was more evident by SEC-HPLC using a pH 5.5 mobile phase condition which induces association of rhASA to an octamer.
protein,measurement,value
B1,binding result,binds
